* marks the point of attachment. Biotin = O=C1N[C@H]2[C@H](CS[C@H]2CCCCC(=O)*)N1
Key:
Assay in all cases: SRU BIND biosensor, peptides captured on streptavidin plate
[1] = target: T1, myostatin artificial peptide No 13 (SGSGEAFGWDWIIAPKRY) (HELM PEPTIDE1{[O=C1N[C@H]2[C@H](CS[C@H]2CCCCC(=O)[*:2])N1].S.G.S.G.E.A.F.G.W.D.W.I.I.A.P.K.R.Y.[am]}$$$$V2.0; SMILES …)
T1 construct: also called Peptide 13
T1 peptide: SGSGEAFGWDWIIAPKRY
Procedure: (§1) Work was carried out on an SRU BIND reader (SRU Biosystems). A streptavidin biosensor plate was washed, a baseline reading taken, and biotinylated peptides captured onto the streptavidin coated biosensor plate. The plate was washed again, and a new baseline reading taken, antibody was then added and binding monitored.

[2] = target: T2, myostatin artificial peptide No 35 (SGSGSAGPCCTPTKMSPI) (cysteine pairing not given here)
T2 construct: also called Peptide 35
T2 peptide: Biotin-SGSGSAGPCCTPTKMSPI-NH2
Procedure: as §1

[3] = target: T3, myostatin artificial peptide No 31 (SGSGVHQANPRGSAGPCC) (cysteine pairing not given here)
T3 construct: also called Peptide 31
T3 peptide: Biotin-SGSGVHQANPRGSAGPCC-NH2
Procedure: as §1

[4] = target: T4, myostatin artificial peptide No 25 (SGSGFVFLQKYPHTHLVH) (HELM PEPTIDE1{[O=C1N[C@H]2[C@H](CS[C@H]2CCCCC(=O)[*:2])N1].S.G.S.G.F.V.F.L.Q.K.Y.P.H.T.H.L.V.H.[am]}$$$$V2.0; SMILES …)
T4 construct: also called Peptide 25
T4 peptide: SGSGFVFLQKYPHTHLVH
Procedure: as §1

[5] = target: T5, myostatin artificial peptide No 45 (SGSGGKEQIIYGKIPAMV) (HELM PEPTIDE1{[O=C1N[C@H]2[C@H](CS[C@H]2CCCCC(=O)[*:2])N1].S.G.S.G.G.K.E.Q.I.I.Y.G.K.I.P.A.M.V.[am]}$$$$V2.0; SMILES …)
T5 construct: also called Peptide 45
T5 peptide: SGSGGKEQIIYGKIPAMV
Procedure: as §1

[6] = target: T6, myostatin artificial peptide No 27 (SGSGQKYPHTHLVHQANP) (HELM PEPTIDE1{[O=C1N[C@H]2[C@H](CS[C@H]2CCCCC(=O)[*:2])N1].S.G.S.G.Q.K.Y.P.H.T.H.L.V.H.Q.A.N.P.[am]}$$$$V2.0; SMILES …)
T6 construct: also called Peptide 27
T6 peptide: SGSGQKYPHTHLVHQANP
Procedure: as §1

[7] = target: T7, myostatin artificial peptide No 19 (SGSGRYKANYCSGECEFV) (cysteine pairing not given here)
T7 construct: also called Peptide 19
T7 peptide: Biotin-SGSGRYKANYCSGECEFV-NH2
Procedure: as §1

[8] = target: T8, myostatin artificial peptide No 17 (SGSGIAPKRYKANYCSGE) (HELM PEPTIDE1{[O=C1N[C@H]2[C@H](CS[C@H]2CCCCC(=O)[*:2])N1].S.G.S.G.I.A.P.K.R.Y.K.A.N.Y.C.S.G.E.[am]}$$$$V2.0; SMILES …)
T8 construct: also called Peptide 17
T8 peptide: SGSGIAPKRYKANYCSGE
Procedure: as §1

[9] = target: T9, myostatin artificial peptide No 5 (SGSGHSTESRCCRYPLTV) (cysteine pairing not given here)
T9 construct: also called Peptide 5
T9 peptide: Biotin-SGSGHSTESRCCRYPLTV-NH2
Procedure: as §1

[10] = target: T10, myostatin artificial peptide No 11 (SGSGTVDFEAFGWDWIIA) (HELM PEPTIDE1{[O=C1N[C@H]2[C@H](CS[C@H]2CCCCC(=O)[*:2])N1].S.G.S.G.T.V.D.F.E.A.F.G.W.D.W.I.I.A.[am]}$$$$V2.0; SMILES …)
T10 construct: also called Peptide 11
T10 peptide: SGSGTVDFEAFGWDWIIA
Procedure: as §1

[11] = target: T11, myostatin artificial peptide No 37 (SGSGCCTPTKMSPINMLY) (cysteine pairing not given here)
T11 construct: also called Peptide 37
T11 peptide: Biotin-SGSGCCTPTKMSPINMLY-NH2
Procedure: as §1

[12] = target: T12, myostatin artificial peptide No 23 (SGSGGECEFVFLQKYPHT) (HELM PEPTIDE1{[O=C1N[C@H]2[C@H](CS[C@H]2CCCCC(=O)[*:2])N1].S.G.S.G.G.E.C.E.F.V.F.L.Q.K.Y.P.H.T.[am]}$$$$V2.0; SMILES …)
T12 construct: also called Peptide 23
T12 peptide: SGSGGECEFVFLQKYPHT
Procedure: as §1

[13] = target: T13, myostatin artificial peptide No 15 (SGSGWDWIIAPKRYKANY) (HELM PEPTIDE1{[O=C1N[C@H]2[C@H](CS[C@H]2CCCCC(=O)[*:2])N1].S.G.S.G.W.D.W.I.I.A.P.K.R.Y.K.A.N.Y.[am]}$$$$V2.0; SMILES …)
T13 construct: also called Peptide 15
T13 peptide: SGSGWDWIIAPKRYKANY
Procedure: as §1

[14] = target: T14, myostatin artificial peptide No 47 (SGSGIIYGKIPAMVVDRC) (HELM PEPTIDE1{[O=C1N[C@H]2[C@H](CS[C@H]2CCCCC(=O)[*:2])N1].S.G.S.G.I.I.Y.G.K.I.P.A.M.V.V.D.R.C.[am]}$$$$V2.0; SMILES …)
T14 construct: also called Peptide 47
T14 peptide: SGSGIIYGKIPAMVVDRC
Procedure: as §1

[15] = target: T15, myostatin artificial peptide No 29 (SGSGHTHLVHQANPRGSA) (HELM PEPTIDE1{[O=C1N[C@H]2[C@H](CS[C@H]2CCCCC(=O)[*:2])N1].S.G.S.G.H.T.H.L.V.H.Q.A.N.P.R.G.S.A.[am]}$$$$V2.0; SMILES …)
T15 construct: also called Peptide 29
T15 peptide: SGSGHTHLVHQANPRGSA
Procedure: as §1

[16] = target: T16, myostatin artificial peptide No 7 (SGSGSRCCRYPLTVDFEA) (cysteine pairing not given here)
T16 construct: also called Peptide 7
T16 peptide: Biotin-SGSGSRCCRYPLTVDFEA-NH2
Procedure: as §1

binding result [1]: no binding | binding result [2]: no binding | binding result [3]: no binding | binding result [4]: no binding | binding result [5]: no binding | binding result [6]: no binding | binding result [7]: no binding | binding result [8]: no binding | binding result [9]: no binding | binding result [10]: no binding | binding result [11]: no binding | binding result [12]: no binding | binding result [13]: no binding | binding result [14]: no binding | binding result [15]: no binding | binding result [16]: no binding
B1: mouse monoclonal antibody 10B3 (antibody, mouse IgG2a, V domains shown)
VH: EVQLQQSGPELVKPGASVKISCKASGYSFTGYFMHWVKQSHGNILDWIGNIYPYNGVSNYNQRFKAKATLTVDKSSSTAYMELRSLTSEDSAVYYCARRYYYGTGPADWYFDVWGTGTTVTVSS
VL: DIKMTQSPSSMYASLRERVTITCKASQDINSYLSWFQQKPGKSPKTLIYRANRLVDGVPSRFSGSGSGQDYSLTISSLEYEDMGIYYCLQCDEFPLTFGAGTKLELK
notes: Murine IgG2a/k; also called 10B3 mouse parental; parental 10B3

Reference: patent US20130142788A1 (published 2013)
